Experiment: soluble on expression in E. coli; label from the status in PepcDB or PDB records

Soluble on expression in E. coli, not soluble:
MGSDKIHHHHHHLNTLKTNAMEIFKQAVSTLNNPEVQGWKQQGGKVVGYFYSYIPEELITAAGLLPYKIRGIGSPGAAMADKYFTHNVCSLVRDTFELVLKGECDFLDGVINFNGCDHIRRISDNWQSLENNPCFHFLVLPKKVGKEQTERYREELVSLKASIEKRFNLVISEDKLKEAIRLHNKKRQLQRRLYELKKRENPPLSGAETLTVMIAGTVMPVARYNRLLAELIDELSISEGKKPNARLMLIGGELDNPELLKILESQGGMVVSDTMALGAREIACDVSETEDGLTALARYHMEDKPPCPRLYGTFQERFDFIRKTAREYQVDGVISLRFLLCDIWGFEQNDIAEILRTEKLPYLKLETEYALTNAGQLKTRVQAFVETLGEV
MGSDKIHHHHHHLPALPHIPIPVNFEEYCQQKAAPPGSSTYYALRQAPAASQPLLTALFALRREFEETVKETSDPTIGRTKLAWWQNEIAALASDSPSHPVSKALAAYLPDVKTEYPALQTLLAGFEMDLDQARYLDYPNLRRYVQGVGGTFASLVARATAKDAAQASNWSAPLGEALMLAQFVVETGHDARHGRIYIPIDEMQRFNVTAADLINRKYTEAFTELMRFETKRARDALQSALGAVPGSERRTQRTLVAQAALASALLDEIERDGYHVLHQRIALTPIRKLWIAWRAK
MGSDKIHHHHHHLQVEKNVVISEFIVNMEDVLYHRDNTDVNIAEKVAEQTASLAHYGVAHYVLTNATNQQDSDNLHIVQTDLFEHYPKLTLYFYRILMAFDFLQAHPEIEKAALTDAGDVKMLNYPFDAVEDGILYMGDETIFIYDTSILIGYDGPQFIKDFIWENGHLPILNLGIMVGTRETLIEYLGIMVKLITEAELSLAQGNDEAFLGTYKMAISNYVAYYYFKDRLVHGNQVSTIFHGEQMVSGAWFKHK
MGSDKIHHHHHHLRLFGTKDEQLFMLFSESARVVVRGGDILQNVVNDYSDLDIKMAKLTAMEHEGDRIIQELIRRLNTSFILPFDREDAFQLAQKLSTTLDYITGIIDRMILYKTGRPNKRVKEMVNVLCEALFLQERALNLLQSLEHNKREILECCEEIRQLERKQDNHYRQGLALLFENEEEPIVIIKWREVYEHIEMAQDYVQDVAELISNICVKYS
MGSDKIHHHHHHLRLQLSTWPEVADYLSTRRGVIIPIGSTEQHGPSGLIGTDAITAEVVSWRAGEVLDTLVAPTIAVGMAHHHMAFPGSMTLRPSTLIAVIRDTILALSSHGFTRFLFVNGHGGNIPSIQSAFYEAYEEMRVHHGDGAPDIACQLCSWFSSPAVEALAAEAFGDAEGSHATPSEVSVTWHAYPDQQRTPVLDPPVAPQGRFTDSRDFRRAFPDGRIGSNPALATPELGGRFVEVAVDYIATTYGDFLKG
MGSDKIHHHHHHLTLMGLSVTDYDSEMPDATEPGTTERSLVELLLAEGPSTRLELQAKLGVSRPTLSSAVNKLLSLGLLQEQGTAAYGAGRNGRPQALLAPNRAMGAAVGIELGKAQVAVTILAIDGTVHAQKVTSTSPGTTLQRRLNIALGSVGTFISSNILNPESVLGVGVGVSGLHPDARPAGGSALVDPPGAKLDKLRTLLAAPVVWDNNTRMATFRHLGGSGLDSPGAVLYVVLSAGVSAGIVDGGEVLRGRGAAGELGHVCLDPEGPVCGCGSRGCLEAYVGVEAVLRSARGKGATVADLEELAAVVQSGDADALAVIGLVGRMLGIGLNNAAMLVDPRRIILTGPLLSLGPALVSAATEELRIRRMAVTLGVPDVVAEIGSPFDSSHGAALTALRRWGPGFMGMLTQNGIATTG
MGSDKIHHHHHHMAANRFNGFTDYGIGIGLRIPHYRHILDNKPVVDWFEIISENYMIDGGRPLAVLDAILEQYRVVQHGVSMYFGSVDPLNREHLKRLKNLTRRTKTPWLTDHLCWGSVDGRYTHDLMPLPYTWEAIDVTVAKIKQVRDYLEIPVAVENVSSYAEFHESEMTEWEFLNEVVERADCGILLDVNNIYVSSMNHSFDPHVYVDSVPAERVAQIHIAGHSKYEKYILDTHDHPVIDPVWQLYAHAIRRCGPTATLLEWDDHIPSFEEVHNEALKAKKFLAENAEPVEKKIAAAEARV
MGSDKIHHHHHHMACVRDKPVSGPPTSLSAPHLRISLAFRGGLCPYSRARPEKDYAFKGNFVLRDLIANGQSMRTISLPRGRQRLHAMPTSTGYEVREDEIYDWDGRKRGQTPFTVLQHTISGTGRLRYENRNYRLQENDTLLVLVPHNHRYWLASDERWEYFWISMNGEEALRIHKSILSISGPVFRLKPATIDHLADCSLRLINGAASAGAASAIAYEAAMALYDDVFGSHAFAEKLSAMQPVIDHINANLDRPLPVADLVQISGLSRAHFSRCFAESEGLPPAEFVLQQRLQRAAKLLTKADFLPVKEVAILCGFEDANYFSKVFRRLYGTTPSQFRTTGMYANLRTPARRGVRVSDDET
MGSDKIHHHHHHMADKGIIFSDAMVRALLDGTKTQTRRLCAWPNNPNTPQLTYIVACDEPGWFGDEEGEVQFRVPHAQGDRLYVREAWSVRGTYTDVVEVGYRASANRSHTEFVEQWPVGDAIPGKGSWPQWPKYGPSIHMPRWASRMWLQITDVRVQRLQEISAADCRAEGLERGAVGGLLPAYRGSADLEWRIYADDAYHDLWDSLHGESGTRWADNPWVTVYTFDVHKGNIGKAARG
MGSDKIHHHHHHMADMTDQLPEVRKSHPYVMYEMMKDIPNGIDRTLSSMQNADLSFIGDDLIFLGNGTAYHSAYVGSQILDRVSKRHAVVQAYEYLNYMQSNAATIAISHTGKTKSTVDAVIKARKTAKTAGITHYADSPLYNSVDYPIAIADEDKSLCNTKAFFNNAFASLYIADYYGNLSYDMKNLRSEIAKHVGKDDPEMRSAAEELDQIDDIFVLGSGFNFPVAREAAQKIKEATHIHAEGIEFEEFNHGCTAVMDENTLVILIEGEKDRARGDQIARASRYVGSKTLAINGVGDISVYNDPQDDLSAAFLNTLDLYYLAYYLAVRRNINPDMLRFEDRRYRDYDSVVFPPGEH
MGSDKIHHHHHHMAEELLPLKTVRNPRDLGGYTGFAGRKIKAGLLLRTGTVAAISEEDGNYLRARGVKTIIDLRSPQECRKRPDKKLAGIQNVNIPVNSRDQTKAEASLAELARQYGLDPLAGFRHMVESYRLMVTEEHAQAAFGQVLAYLAETEGGTIYHCSEGKDRTGLVTVFLLTVLGVDPETIRQDYLLSAPYLNVYRAKRDKEARENGESLVQRANLRSLGTVNNEYLDS
MGSDKIHHHHHHMAGFRPKASPRLSPDAERLVADALALDASGSRMEDAYWERRLSQRLGRLLKNGSQTALDAALEHLFKHNADASDVLAEQAETLAESAMVEVDGVRYDALLVAAPILAHTRYAIPSGSLKPDLAQTLAVHLQAHVLATGTKVALSPYLYSIDQLPRTHSDTFALTHKLAAAALSGTVPKVDLRDLPETAPILADPRYLLAVVVAPHEQALFRWQEDAKEHHAERSTCLEQWRSQVQATVALLLPGCEFELLLPDAFFLSCRESDKSIRPLTVRAAVNYLSGTLDVPAGQLAAVVAAFGEEVVEEYRVGFTMRGEKDVIYGIVWPVYGREAGEVDADEKGNPLEQICEELRNAGVEDIFRHAALFDPEYCEDCGTPLYADRNGEIVHAELPEDAPTQQPLFH
MGSDKIHHHHHHMAGLRVFVSSTCYDLSVIRSQLRIFIQSLGHEPLMSDYSDLLYDPRLHTHTSCVDEVATADIVVLIVGARFGGKTVPEALAKLDFDLLKKESKSTESLIKKENLSVTQLEILKAVESGIPVFTFVDSSVWHDHALYEKNKDKPIINDISFPSIEKAETASFIFEFINFLRHRARGNSVYTFSKLQDIEDTLRRQWSSLFQKLIQEQRSKAFEAKRLDNLTEQFEDLKTAILTSIGTTNERDVARGVVRFRRLIDFVRSLGLKDHNFLIRGHHPWDELLHYAEIEKVLDAAELPEEFIFHRRNFGSRPRMFLIKNDGTFFELRTSPDFFHSLSLEWEAFMDLPEDTREIIVDALSEMRPGMGPLRYIREPFDYHVDKWIHQERLLKDIDDSDHESSHS
MGSDKIHHHHHHMAGWRTVVVNTHSKLSYKNNHLIFKDSYQTEMIHLSEIDILIMETTDIVLSTMLIKRLVDENILVIFCDDKRLPTAMLMPYYARHDSSLQLSRQMSWIEDVKADVWTSIIAQKILNQSFYLGECSFFEKSQSIMNLYHDLEPFDPSNREGHAARIYFNTLFGNDFSREQDNPINAGLDYGYSLLLSMFAREVVKCGCMTQFGLKHANQFNQFNLASDIMEPFRPIVDRIIYENRQSDFVKMKRELFSMFSETYSYNGKEMYLSNIVSDYTKKVIKSLNSDGNGIPEFRI
